Laboratory results as given in article PMC4754353.

Molecular target: Nrp1 immobilized on the BLI biosensor (UniProt Q9QWJ9)
Assay: BLI

Kd [nM] | Substance
29.8 | human glycyl-tRNA synthetase L129P mutant (L129P-GlyRS^CMT2D), non-tagged (enzyme)
209 | human glycyl-tRNA synthetase P234KY mutant (P234KY-GlyRS^CMT2D), non-tagged (enzyme)
